The results in this text go back to paper PMC2577357 (Nucleic Acids Research, 2008).

In one series the target is T1, MthRnl (Methanobacterium thermoautotrophicum ΔH, UniProt O27289 1-381).
T1 sequence: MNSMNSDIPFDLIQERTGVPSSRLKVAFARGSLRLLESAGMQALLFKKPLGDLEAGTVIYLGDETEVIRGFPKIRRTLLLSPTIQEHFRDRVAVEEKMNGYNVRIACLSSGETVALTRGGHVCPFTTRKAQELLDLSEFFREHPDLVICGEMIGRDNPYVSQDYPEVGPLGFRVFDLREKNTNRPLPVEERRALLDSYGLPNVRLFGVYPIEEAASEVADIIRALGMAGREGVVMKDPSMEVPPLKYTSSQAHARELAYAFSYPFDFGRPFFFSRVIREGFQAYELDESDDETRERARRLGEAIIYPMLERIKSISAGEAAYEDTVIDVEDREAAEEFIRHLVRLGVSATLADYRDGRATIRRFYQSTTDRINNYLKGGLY
Kind of series: EMSA.

Series [1] deals with the molecule itself. In words: glycerol gradient sedimentation.

Consider AUUCCGAUAGUGCGUGUCGCCCUU (ssRNA, 5'-phosphate) [pRNA 24-mer], for which the Kd in the series with MthRnl is ~1500 nM.

B1: Methanobacterium RNA ligase (MthRnl), full-length, His10-tagged (enzyme, Methanobacterium thermoautotrophicum ΔH, UniProt O27289 1-381, looked up)
chain: MNSMNSDIPFDLIQERTGVPSSRLKVAFARGSLRLLESAGMQALLFKKPLGDLEAGTVIYLGDETEVIRGFPKIRRTLLLSPTIQEHFRDRVAVEEKMNGYNVRIACLSSGETVALTRGGHVCPFTTRKAQELLDLSEFFREHPDLVICGEMIGRDNPYVSQDYPEVGPLGFRVFDLREKNTNRPLPVEERRALLDSYGLPNVRLFGVYPIEEAASEVADIIRALGMAGREGVVMKDPSMEVPPLKYTSSQAHARELAYAFSYPFDFGRPFFFSRVIREGFQAYELDESDDETRERARRLGEAIIYPMLERIKSISAGEAAYEDTVIDVEDREAAEEFIRHLVRLGVSATLADYRDGRATIRRFYQSTTDRINNYLKGGLY
Consider B1, for which the “stoichiometry N” value in series [1] is 2.

Take ATTCCGATAGTGCGTGTCGCCCTT (ssDNA, 5'-phosphate) [pDNA 24-mer]: in the series with MthRnl, the equilibrium dissociation constant (Kd) was ~2000 nM.
